Laboratory results reported in PMC7227451 (Cellular and Molecular Immunology, 2020).

Molecular target: T1, SARS-CoV-2 RBD-hFc (SARS-CoV-2, UniProt P0DTC2)
T1 construct: not shown: Fc (human IgG1), C-terminal, kept
Test: ELISA
Settings: both partners purified

B1: 80R (antibody, V domains shown)
VH: EVQLVQSGGGVVQPGKSLRLSCAASGFAFSSYAMHWVRQAPGKGLEWVAVISYDGSNKYYADSVKGRFTISRDNSKNTLYLQMNSLRAEDTAVYYCARDRSYYLDYWGQGTLVTVSS
VL: ETTLTQSPATLSLSPGERATLSCRASQSVRSNLAWYQQKPGQAPRPLIYDASTRATGIPDRFSGSGSGTDFTLTISRLEPEDFAVYYCQQRSNWPPTFGQGTKVEVK
binding result: no binding
